From patent publication US20230106715A1 (BIOSION, published 2023) come the findings set out here.

The assay concerns the target T1, human Siglec15-mouse Fc protein (human).
T1 construct: In house made
T1 chain: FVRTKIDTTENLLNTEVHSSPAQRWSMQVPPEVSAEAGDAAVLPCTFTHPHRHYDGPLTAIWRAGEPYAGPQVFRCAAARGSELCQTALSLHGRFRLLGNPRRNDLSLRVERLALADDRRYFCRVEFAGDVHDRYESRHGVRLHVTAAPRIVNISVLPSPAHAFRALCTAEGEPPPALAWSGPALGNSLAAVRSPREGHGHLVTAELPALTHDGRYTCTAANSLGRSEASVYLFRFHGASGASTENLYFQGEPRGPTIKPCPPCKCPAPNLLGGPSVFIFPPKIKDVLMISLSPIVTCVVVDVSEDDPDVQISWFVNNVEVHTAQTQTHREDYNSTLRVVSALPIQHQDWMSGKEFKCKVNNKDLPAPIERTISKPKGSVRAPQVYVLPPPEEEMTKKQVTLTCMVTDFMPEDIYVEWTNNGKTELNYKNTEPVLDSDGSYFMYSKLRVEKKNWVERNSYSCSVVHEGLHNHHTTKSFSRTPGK
Kind of assay: cell based blocking FACS: human Siglec15-mouse Fc in solution, blocked ligand human LRRC4C on LRRC4C-3F12-1B9 cells. As to the method:
The activities of the anti-Siglec15 antibodies to block binding of Siglec15 protein to cell surface LRRC4C were evaluated by Flow Cytometry (FACS), using in house made LRRC4C-3F12-1B9 cells. Briefly, HEK-293 cells (ATCC #CRL-1573) were transfected with pCMV-T-P plasmid constructs with the nucleotide sequence encoding human LRRC4C (amino acid residues Met1-Ile640 of uniprot #Q9HCJ2) inserted between EcoRI and XbaI, following the instruction of lipofectamine 3000 transfection reagent (Thermo Fisher). A stable cell named LRRC4C-3F12-1B9 was chosen for subsequent cell based ligand-blocking assay.
Briefly, the anti-Siglec15 antibodies of the disclosure or controls were diluted with human Siglec15-mouse Fc protein (prepared in-house with SEQ ID NO: 26, 8 μg/ml […] in FACS buffer), starting at 66.67 nM with a 5-fold serial dilution, and incubated at room temperature for 40 minutes. Then, LRRC4C-3F12-1B9 cells were harvested from cell culture flasks, washed twice and re-suspended in PBS containing 2% v/v Fetal Bovine Serum (FACS buffer). Then, 1×10⁵ cells per well in 96 well-plates were incubated in 100 μL of the antibody/Siglec15-mouse Fc mixtures for 40 minutes at 4° C. […] Cells were washed twice and re-suspended in FACS buffer. Fluorescence was measured using a Becton Dickinson FACS Canto II-HTS equipment. Data was analyzed using Graphpad Prism software and IC₅₀ values were reported.

B1: anti-Siglec15 benchmark (ch5G12) (antibody, human IgG1, kappa, V domains shown)
VH: QVQLQQPGAELVKPGASVKMSCKASGYTFTSYWITWVIQRPGQGLEWIGDIYCGSDTMHYNEKFKNKATLTVDTSSSTAYMQLSSLTSEDSAVYYCARWWDYGSSYDYFDYWGQGTTLTVSS
VL: DIKMTQSPSSMYASLGERVTITCKASQDINSYLSWFQQKPGKSPKTLIYRANRLVDGVPSRFSGSGSGQDYSLTISSLEYEDMGIYYCLQYDEFPYTFGGGTKLEIKR
notes: ch5G12 (US 20190202912A1); also called BM; Siglec15-ch5G9
As usually defined, the IC50 is the concentration that inhibits the measured activity by half. Read a high IC50 as a need for much substance. Regarding B1, it took 639 pM to reach half-maximal inhibition (IC50).
